Changes are numbered by the printed parent chain. Names and notes keep the numbering of the source.
B1: anti-CD20 human IgG1 L234A/G236R (antibody)
heavy: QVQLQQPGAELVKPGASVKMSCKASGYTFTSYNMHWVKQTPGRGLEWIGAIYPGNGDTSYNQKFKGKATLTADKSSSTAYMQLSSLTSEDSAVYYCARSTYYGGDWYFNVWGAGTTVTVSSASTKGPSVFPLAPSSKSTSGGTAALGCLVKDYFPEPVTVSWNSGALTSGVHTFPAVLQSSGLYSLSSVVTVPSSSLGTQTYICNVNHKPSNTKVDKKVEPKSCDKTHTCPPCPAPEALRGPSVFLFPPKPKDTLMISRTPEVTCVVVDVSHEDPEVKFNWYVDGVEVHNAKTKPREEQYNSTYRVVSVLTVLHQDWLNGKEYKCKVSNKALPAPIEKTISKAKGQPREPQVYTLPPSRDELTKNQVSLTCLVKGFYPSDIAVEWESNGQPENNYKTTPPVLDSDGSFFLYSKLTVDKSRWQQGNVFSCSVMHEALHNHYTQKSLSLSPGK
light: QIVLSQSPAILSASPGEKVTMTCRASSSVSYIHWFQQKPGSSPKPWIYATSNLASGVPVRFSGSGSGTSYSLTISRVEAEDAATYYCQQWTSNPPTFGGGTKLEIKRTVAAPSVFIFPPSDEQLKSGTASVVCLLNNFYPREAKVQWKVDNALQSGNSQESVTEQDSKDSTYSLSSTLTLSKADYEKHKVYACEVTHQGLSSPVTKSFNRGEC
notes: also called 1-9
B2: anti-CD20 human IgG1 L234D/L235T/G236R (antibody)
heavy: QVQLQQPGAELVKPGASVKMSCKASGYTFTSYNMHWVKQTPGRGLEWIGAIYPGNGDTSYNQKFKGKATLTADKSSSTAYMQLSSLTSEDSAVYYCARSTYYGGDWYFNVWGAGTTVTVSSASTKGPSVFPLAPSSKSTSGGTAALGCLVKDYFPEPVTVSWNSGALTSGVHTFPAVLQSSGLYSLSSVVTVPSSSLGTQTYICNVNHKPSNTKVDKKVEPKSCDKTHTCPPCPAPEDTRGPSVFLFPPKPKDTLMISRTPEVTCVVVDVSHEDPEVKFNWYVDGVEVHNAKTKPREEQYNSTYRVVSVLTVLHQDWLNGKEYKCKVSNKALPAPIEKTISKAKGQPREPQVYTLPPSRDELTKNQVSLTCLVKGFYPSDIAVEWESNGQPENNYKTTPPVLDSDGSFFLYSKLTVDKSRWQQGNVFSCSVMHEALHNHYTQKSLSLSPGK
light: B1 light
notes: also called 2-11; 1-30
B3: anti-CD20 human IgG1 L234E/L235V/G236R (antibody)
heavy: B2 heavy with D238E, T239V
light: B1 light
notes: also called 2-16; 1-46
B4: anti-CD20 human IgG1 L234G/L235Q/G236R (antibody)
heavy: B2 heavy with D238G, T239Q
light: B1 light
notes: also called 2-18; 1-57
B5: anti-CD20 human IgG1 L234A/L235A/G236R (antibody)
heavy: not shown
light: B1 light
notes: also called 2-2; 1-2
B6: anti-CD20 human IgG1 L234Q/L235D/G236R (antibody)
heavy: B2 heavy with D238Q, T239D
light: B1 light
notes: also called 2-28
B7: anti-CD20 human IgG1 L234D/G236R (antibody)
heavy: not shown
light: B1 light
notes: also called 2-8; 1-24
B8: anti-CD20 human IgG1 L234Q/G236R (antibody)
heavy: not shown
light: B1 light
notes: also called 2-30
B9: anti-CD20 human IgG1 L234E/L235H/G236R (antibody)
heavy: B2 heavy with D238E, T239H
light: B1 light
notes: also called 2-13; 1-36
B10: anti-CD20 human IgG1 L234S/L235V/G236R (antibody)
heavy: B2 heavy with D238S, T239V
light: B1 light
notes: also called 2-53
B11: anti-CD20 human IgG1 L234Q/L235H/G236R (antibody)
heavy: B2 heavy with D238Q, T239H
light: B1 light
notes: also called 2-29
B12: anti-CD20 human IgG1 L234D/L235H/G236R (antibody)
heavy: B2 heavy with T239H
light: B1 light
notes: also called 2-6; 1-21
B13: anti-CD20 human IgG1 L234A/L235T/G236R (antibody)
heavy: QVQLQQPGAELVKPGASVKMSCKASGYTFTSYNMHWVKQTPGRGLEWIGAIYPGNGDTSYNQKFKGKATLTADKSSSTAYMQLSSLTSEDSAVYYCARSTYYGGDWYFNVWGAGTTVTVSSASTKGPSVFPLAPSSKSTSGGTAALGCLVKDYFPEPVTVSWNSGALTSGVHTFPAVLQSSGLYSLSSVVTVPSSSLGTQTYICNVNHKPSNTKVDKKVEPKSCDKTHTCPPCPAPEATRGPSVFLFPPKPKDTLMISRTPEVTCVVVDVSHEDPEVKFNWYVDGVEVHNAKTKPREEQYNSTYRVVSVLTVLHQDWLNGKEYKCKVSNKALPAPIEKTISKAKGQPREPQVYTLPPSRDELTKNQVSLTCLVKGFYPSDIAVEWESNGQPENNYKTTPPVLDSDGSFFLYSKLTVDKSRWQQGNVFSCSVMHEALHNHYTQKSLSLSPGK
light: B1 light
notes: also called 2-5; 1-15
B14: anti-CD20 human IgG1 L234R/G236R (antibody)
heavy: not shown
light: B1 light
notes: also called 2-41
B15: anti-CD20 human IgG1 L234G/L235H/G236R (antibody)
heavy: B2 heavy with D238G, T239H
light: B1 light
notes: also called 2-17; 1-51
B16: anti-CD20 human IgG1 L234E/L235D/G236R (antibody)
heavy: B2 heavy with D238E, T239D
light: B1 light
notes: also called 2-12; 1-33
B17: anti-CD20 human IgG1 L234H/L235I/G236R (antibody)
heavy: B2 heavy with D238H, T239I
light: B1 light
notes: also called 2-20; 1-67
B18: anti-CD20 human IgG1 L234E/L235I/G236R (antibody)
heavy: B2 heavy with D238E, T239I
light: B1 light
notes: also called 2-14; 1-37
B19: anti-CD20 human IgG1 L234K/L235T/G236R (antibody)
heavy: B2 heavy with D238K
light: B1 light
notes: also called 2-25; 1-90
B20: anti-CD20 human IgG1 L234T/L235V/G236R (antibody)
heavy: B2 heavy with D238T, T239V
light: B1 light
notes: also called 2-64
B21: anti-CD20 human IgG1 L234D/L235Q/G236R (antibody)
heavy: B2 heavy with T239Q
light: B1 light
notes: also called 2-9; 1-27
B22: anti-CD20 human IgG1 L234D/L235S/G236R (antibody)
heavy: B2 heavy with T239S
light: B1 light
notes: also called 2-10; 1-29

What was measured:
[1] = target: T1, Histidine-tagged recombinant human FcγRI (CD64) (human, UniProt P12314 16-288, limits assumed); experiment: SPR, His-FcγRI captured; mean;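 note: biacore T200 SPR at 25 °C, anti-His surface capturing FcγRI, Fc-variant antibodies injected at 100 µg/mL for 1 min, signal near injection end minus third buffer blank, three repeats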
T1 construct: bought
Method: (§1) Binding analysis was carried out by surface plasmon resonance at 25° C. using a Biacore® T200 instrument with Biacore® T200 control software. The sample compartment was held at 5° C. The running buffer (HBS-EP+) consisted of 0.01 M HEPES pH 7.4, containing 0.15 M NaCl, 3 mM EDTA, and 0.05% v/v Surfactant P20. Methods were run using the manufacturer's standard method wizards as described in the Biacore® T200 Instrument Handbook.
(§2) The cell was activated by treatment with EDC/NHS for 7 min. The antibody was diluted to 10 μg/mL in 10 mM sodium acetate pH 5.0 and injected for 7 min at 5 μL/min. The flow cell was deactivated by injection of 1M ethanolamine for 7 min. This process was repeated in the absence of anti-his antibody on a separate flow cell to generate a reference surface. […] Samples of purified antibodies comprising variant Fc regions (1 mg/mL in PBS) were diluted with running buffer to 100 μg/mL and were injected for 1 min at 30 μL/min and allowed to disassociate for 2 min. Between each cycle, the chip was regenerated by injection of 10 mM glycine pH 3.0 for 0.5 min at a flow rate of 30 μL/min and recharged with a fresh injection of FcγRI. At the beginning of each experiment, three blank cycles were run, with buffer alone being injected instead of test sample. The average SPR signal (relative to the reference cell) was measured in a window approximately 8 to 13 seconds before the injection of test sample (baseline) and approximately 3 to 8 seconds before the end of injection (response). The response of the third of the blank (buffer) samples was subtracted from the response of each test sample in order to allow for any dissociation of the bound FcγRI giving a corrected response for each test sample. The whole experiment was repeated three times with the test samples being analysed in different orders each time.

[2] = target: T1, Histidine-tagged recombinant human …; experiment: SPR, His-FcγRI captured; Expt 3;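 note: biacore T200 SPR at 25 °C, Fc-variant antibodies at 100 µg/mL flowed 1 min over anti-His-captured FcγRI, signal taken just before injection end minus a buffer blank cycle; antibody analyte injected at 100 µg/mL for 1 min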
Method: as §1, §2

[3] = target: T1, Histidine-tagged recombinant human …; experiment: SPR, His-FcγRI captured; Expt 2;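 note: biacore T200 SPR at 25 °C, Fc-variant antibodies at 100 µg/mL flowed 1 min over anti-His-captured receptor, signal read near injection end minus third buffer blank; antibody analyte injected at 100 µg/mL for 1 min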
[4] = target: T1, Histidine-tagged recombinant human …; experiment: SPR, His-FcγRI captured; Expt 1;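 note: SPR at 25 °C on anti-His antibody chip capturing FcγRI, Fc-variant antibodies injected at 100 µg/mL for 1 min, signal near end of injection minus buffer blank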
Method: as §1, §2

Binder | Corrected response (RU), Mean [1] [RU] | Corrected response (RU) [2] [RU] | Corrected response (RU) [3] [RU] | Corrected response (RU) [4] [RU]
B1 | 70.4 | 74.7 | 49.3 | 
B2 | 4.3 | 5.5 | 4.3 | 3
B3 | 5.9 | 7.4 | 5.5 | 4.8
B4 | 5.3 | 6.1 | 5.2 | 4.4
B5 | 4.4 | 5.2 |  | 6.3
B6 | 3.8 | 4.4 | 2.7 | 4.3
B7 |  |  | 77.7 | 135
B8 | 39.3 | 49 | 27 | 41.9
B9 | 5.1 | 6.2 | 4.5 | 4.6
B10 | 2.4 | 4.3 |  | 0.7
B11 | 5.7 | 8.1 | 6.7 | 2.2
B12 | 5.2 | 7.7 | 3.8 | 4.3
B13 | 14.3 | 17.3 | 11.2 | 14.6
B14 | 5.2 | 10.7 | 3.9 | 
B15 | 10.1 | 24.4 | 4.2 | 1.8
B16 | 12.3 | 12.3 | 9.4 | 15.1
B17 | 15.6 | 22.8 | 10.9 | 13.1
B18 | 10.4 | 11.7 | 8.1 | 11.6
B19 | -0.6 | 1.1 | -1 | -1.8
B20 | 3.9 | 5.4 | 3.6 | 
B21 | 6.2 | 7.1 | 5.9 | 5.7
B22 | 3.4 | 3.6 | 2.7 | 

Source: patent US20230235013A1 (MABSOLVE, published 2023)
